From publication PMC6312923 (Life Science Alliance, 2018)
Where no end group is shown, it is not given here. TAMRA = carboxytetramethylrhodamine

Legend:
free PCNA = assay: Binding of free PCNA to Cdt1 or CRL4^Cdt2 on anti-FLAG beads; parameters: species or system human; settings: 2 h at 4°C, Western blotting, three independent experiments
Source text: FLAG-tagged Cdt1 (Cdt1-3FLAG) and CRL4^Cdt2 (Cdt2-3FLAG) were expressed in insect cells and purified on anti-FLAG resin (Fig 5A).

[1] = system: CRL4Cdt2 (WT): Cdt2-3FLAG with Cul4A, DDB1, Rbx1;PCNA (Homo sapiens;Homo sapiens); assay: pull-down (DNA beads, Western blot); settings: PCNA preloaded by RFC with ATP; no Cdt1; 408 fmol Cdt2 on […] fmol PCNA trimer; biotin-dT in the second strand; single nick by Nb.BbvCI; HBS: 10 mM Hepes pH 7.4, 0.15 M NaCl, 10 mM MgCl2, 0.2 mM EDTA, 0.05% Tween 20; loading with 2 mM ATP, 37 C 1 h; Cdt1/CRL4Cdt2 binding 4 C 1 h
[2] = system: Cdt1-3FLAG;PCNA (Homo sapiens;Homo sapiens); assay: pull-down (DNA beads, Western blot); settings: PCNA preloaded by RFC with ATP; 301 fmol Cdt1 on […] fmol PCNA trimer; biotin-dT in the second strand; single nick by Nb.BbvCI; HBS: 10 mM Hepes pH 7.4, 0.15 M NaCl, 10 mM MgCl2, 0.2 mM EDTA, 0.05% Tween 20; loading with 2 mM ATP, 37 C 1 h; Cdt1/CRL4Cdt2 binding 4 C 1 h
[3] = biological target: T1, full-length human PCNA (recombinant, for peptide binding and crystallography) (human, UniProt P12004 1-261); assay: fluorescence polarisation; 1 nM labelled peptide mixed with PCNA at 0 to 2 μM; 10 mM Hepes pH 7.5, 125 mM NaCl, 0.5 mM TCEP; non-binding 96-well plates; triplicates; settings: both partners purified
T1 construct: PCNA, human, full length; also called recombinant PCNA; source: E. coli Bl21 (DE3), purified as described (Hibbert & Sixma, 2012)

[4] = system: MCF7 cells, DNA-damage (CPD) sites; assay: Recruitment of GFP-Cdt2 constructs to DNA-damage sites in MCF7 cells; assay type: cell-based, human; settings: MCF7, UV-C 50 J/m^2, GFP fusions; two independent experiments
Source text: Figure 2. The C-terminus of Cdt2 mediates Cdt2 recruitment to sites of damage. (A) A schematic drawing of the domain structure of Cdt2 and constructs used. (B) The C-terminal, but not the N-terminal, part of Cdt2 mediates recruitment to DNA damage sites. MCF7 cells transfected with the indicated plasmids were locally UV-C irradiated (50 J/m^2 through 5 μm pore diameter micropore filters), and recruitment of each Cdt2 construct to sites of damage was examined by staining with α-CPD antibody and GFP signal.
For Western blotting, whole-cell lysates were prepared by lysing cell pellets directly in SDS–PAGE buffer. For immunofluorescence, U2OS or HEK293 cells were fixed in 4% paraformaldehyde (PFA; WAKO) for 10 min, permeabilized in 0.25% (vol/vol) Triton X-100 in PBS, and stained with the indicated antibodies as described previously. […] For cyclobutane pyrimidine dimer (CPDs) staining, MCF7 and HeLa cells were fixed in 4% PFA for 10 min, permeabilized in 0.3% Triton X-100 in PBS, and then incubated in 0.5 N NaOH for 5 min for DNA denaturation before immunofluorescence. Alexa488-conjugated anti-mouse and […] anti-rabbit antibodies were used as secondary antibodies with Hoechst 33258 to visualize DNA. […] Protein levels were analysed by ImageJ software.
We used a method to induce DNA photoproducts within localized areas of the cell nucleus as described in Ishii et al (2010). To perform micropore UV irradiation, cells were cultured on cover slips, washed twice with PBS, and subsequently covered with an isopore polycarbonate membrane filter (Millipore) with a pore size of either 3 or 5 μm in diameter, and irradiated. UV irradiation was achieved using a UV lamp (SUV-16, As One, Japan) with a dose rate of 0.4 J/m^2·s, which was monitored with a UV radiometer (UVX Radiometer, UVP) at 254 nm, or with a UV box equipped with a UV-C lamp monitored with a VLX-3W radiometer (Vilber Lourmat) at 254 nm (CX-254 sensor). The filter was removed and cells were either fixed or cultured for the indicated time before fixation, and processed for immunofluorescence. […]

PCNA = assay: Co-immunoprecipitation of PCNA with FLAG-tagged Cdt2 constructs; assay type: cell-based, human; settings: cross-linked cells, 3FLAG fusions, no UV
Source text: (§1) Before cell lysate preparation, cells were cross-linked.
(§2) Figure 3. […] HEK293 cells were transfected with plasmids expressing the indicated Cdt2 fused to a C-terminal FLAG tag, cross-linked, and precipitated with anti-FLAG antibodies (arrows). […] The bands in the blank lanes for Cul4A blotting correspond to the cross-reacting bands to pre-stained marker. […] HEK293 cells were transfected with the indicated plasmids and treated as in A. * indicates nonspecific bands derived from IgGs. (C) A schematic drawing of the Cdt2 domain structure highlighting the C-terminal PIP box and a sequence alignment of PIP boxes in various organisms. The alanine-changed PIP box mutant of Cdt2 was shown (PIP-3A) together with Cdt1 PIP box. (D) HEK293 cells were transfected with Cdt2^WT or PIP box mutant (Cdt2^PIP-3A) C-terminally fused to a FLAG tag, treated as in B, and Cdt2 was precipitated with anti-FLAG resin.
(§3) Control or Cdt2-FLAG expressing 293 cells that were UV irradiated (50 J/m^2), or not UV irradiated, or in the middle S phase (5 h after release from aphidicolon arrest) were fixed with 0.02% formaldehyde for 10 min, lysed using 0.1% Triton X-100-containing modified cytoskeleton (mCSK) buffer (10 mM Pipes, pH 7.9, 100 mM NaCl, 300 mM sucrose, 0.1% [vol/vol] Triton X-100, 1 mM phenylmethylsulfonyl fluoride, 10 mM β-glycerophosphate, 1 mMNa3VO4, 10 mM NaF), and then sonicated. After centrifugation (120,000g, Beckman Type 45Ti rotor, for 20 min at 4°C), the supernatants were mixed with anti-FLAG antibody-conjugated magnetic beads (M8823; Sigma-Aldrich) for 1 h at 4°C to obtain immunoprecipitates. The precipitate was washed with ice-cold 0.1% Triton X-100 containing mCSK buffer and subsequently suspended in SDS sample buffer.

DDB1, Cul4A = assay: Co-immunoprecipitation of DDB1 / Cul4A with FLAG-tagged Cdt2 constructs; assay type: cell-based, human; settings: anti-FLAG IP, cross-linked cells
Source text: as §1, §2, §3

T1 sequence (P12004 whole entry): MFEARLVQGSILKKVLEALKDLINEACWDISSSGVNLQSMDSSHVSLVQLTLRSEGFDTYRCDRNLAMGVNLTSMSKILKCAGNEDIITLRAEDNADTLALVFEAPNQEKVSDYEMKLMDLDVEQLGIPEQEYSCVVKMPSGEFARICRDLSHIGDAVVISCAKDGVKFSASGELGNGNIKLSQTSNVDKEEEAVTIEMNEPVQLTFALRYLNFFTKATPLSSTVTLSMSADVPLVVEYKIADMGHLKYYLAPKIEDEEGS

Molecule: CRL4^Cdt2: E3 ligase complex of Cdt2-3FLAG, DDB1, HA-Cul4, His-myc-Rbx1, purified from insect cells
- binding of free PCNA to protein beads (free PCNA): much less

Molecule: ncDNA beads (singly nicked circular pBluescript II KS(-))
- binding signal (Cdt2 per PCNA trimer) [1]: 2.57
- binding signal (Cdt1 per PCNA trimer) [2]: 2.04

B1: Cdt2^PIP-TAMRA (704–717) (peptide)
peptide: {TAMRA}-SSMRKICTYFHRKS
notes: human Cdt2 PIP box, residues 704-717; also called Cdt2 PIP box peptide; source: synthetic peptide (in-house Fmoc synthesis)
- Kd [3]: 57 ± 3 nM

B2: Cdt1^PIP-TAMRA (1–14) (peptide)
peptide: MEQRRVTDFFARRR
modifications: also: TAMRA label, position not given here
notes: Cdt1 N-terminal PIP box peptide, residues 1-14; also called Cdt1 PIP box peptide; source: synthetic peptide (in-house Fmoc synthesis)
- Kd [3]: 7200 ± 200 nM

Molecule: RRQTSMTDFYHSKR (p21 PIP box peptide) [p21 PIP box peptide]
- Kd [3]: 36 ± 2 nM

B3: Cdt2^390–730: C-terminal Cdt2 construct (protein)
chain: LNRGLEEKPGGDKLSTVGWASQKKKESRPGLVTVTSSQSTPAKAPRAKCNPSNSSPSSAACAPSCAGDLPLPSNTPTFSIKTSPAKARSPINRRGSVSSVSPKPPSSFKMSIRNWVTRTPSSSPPITPPASETKIMSPRKALIPVSQKSSQAEACSESRNRVKRRLDSSCLESVKQKCVKSCNCVTELDGQVENLHLDLCCLAGNQEDLSKDSLGPTKSSKIEGAGTSISEPPSPISPYASESCGTLPLPLRPCGEGSEMVGKENSSPENKNWLLAMAAKRKAENPSPRSPSSQTPNSRRQSGKKLPSPVTITPSSMRKICTYFHRKSQEDFCGPEHSTEL
modifications: left off: 3FLAG, N-terminal, kept | 3NLS, N-terminal, state not stated | myc, N-terminal, state not stated
notes: C-terminal Cdt2 construct
- recruitment to DNA-damage sites [4]: efficiently recruited to DNA-damage sites
- interaction with PCNA (anti-FLAG IP) (PCNA): still binds to PCNA
- binding to DDB1 (and Cul4A) (DDB1, Cul4A): lost its ability to bind DDB1

B4: Cdt2^1–417: Cdt2 N-terminal WD40 domain construct (protein)
chain: MLFNSVLRQPQLGVLRNGWSSQYPLQSLLTGYQCSGNDEHTSYGETGVPVPPFGCTFSSAPNMEHVLAVANEEGFVRLYNTESQSFRKKCFKEWMAHWNAVFDLAWVPGELKLVTAAGDQTAKFWDVKAGELIGTCKGHQCSLKSVAFSKFEKAVFCTGGRDGNIMVWDTRCNKKDGFYRQVNQISGAHNTSDKQTPSKPKKKQNSKGLAPSVDFQQSVTVVLFQDENTLVSAGAVDGIIKVWDLRKNYTAYRQEPIASKSFLYPGSSTRKLGYSSLILDSTGSTLFANCTDDNIYMFNMTGLKTSPVAIFNGHQNSTFYVKSSLSPDDQFLVSGSSDEAAYIWKVSTPWQPPTVLLGHSQEVTSVCWCPSDFTKIATCSDDNTLKIWRLNRGLEEKPGGDKLSTVGWASQKKKESR
modifications: left off: HA, N-terminal, state not stated | 3FLAG, C-terminal, kept
notes: Cdt2 N-terminal WD40 domain construct
- recruitment to DNA-damage sites [4]: no evidence for recruitment
- interaction with PCNA (anti-FLAG IP) (PCNA): lost most of its affinity for PCNA
- binding to DDB1 (and Cul4A) (DDB1, Cul4A): still able to bind DDB1

B5: Cdt2^1–700: Cdt2 with the C-terminal 30 amino acids deleted (protein)
chain: MLFNSVLRQPQLGVLRNGWSSQYPLQSLLTGYQCSGNDEHTSYGETGVPVPPFGCTFSSAPNMEHVLAVANEEGFVRLYNTESQSFRKKCFKEWMAHWNAVFDLAWVPGELKLVTAAGDQTAKFWDVKAGELIGTCKGHQCSLKSVAFSKFEKAVFCTGGRDGNIMVWDTRCNKKDGFYRQVNQISGAHNTSDKQTPSKPKKKQNSKGLAPSVDFQQSVTVVLFQDENTLVSAGAVDGIIKVWDLRKNYTAYRQEPIASKSFLYPGSSTRKLGYSSLILDSTGSTLFANCTDDNIYMFNMTGLKTSPVAIFNGHQNSTFYVKSSLSPDDQFLVSGSSDEAAYIWKVSTPWQPPTVLLGHSQEVTSVCWCPSDFTKIATCSDDNTLKIWRLNRGLEEKPGGDKLSTVGWASQKKKESRPGLVTVTSSQSTPAKAPRAKCNPSNSSPSSAACAPSCAGDLPLPSNTPTFSIKTSPAKARSPINRRGSVSSVSPKPPSSFKMSIRNWVTRTPSSSPPITPPASETKIMSPRKALIPVSQKSSQAEACSESRNRVKRRLDSSCLESVKQKCVKSCNCVTELDGQVENLHLDLCCLAGNQEDLSKDSLGPTKSSKIEGAGTSISEPPSPISPYASESCGTLPLPLRPCGEGSEMVGKENSSPENKNWLLAMAAKRKAENPSPRSPSSQTPNSRRQSGKKLPSPVT
modifications: left off: HA, N-terminal, state not stated | 3FLAG, C-terminal, kept
notes: Cdt2 with the C-terminal 30 amino acids deleted
- interaction with PCNA (anti-FLAG IP) (PCNA): loss of interaction with PCNA

B6: Cdt2^600–730: C-terminal 130 amino acids of Cdt2 (protein)
chain: KDSLGPTKSSKIEGAGTSISEPPSPISPYASESCGTLPLPLRPCGEGSEMVGKENSSPENKNWLLAMAAKRKAENPSPRSPSSQTPNSRRQSGKKLPSPVTITPSSMRKICTYFHRKSQEDFCGPEHSTEL
modifications: left off: 3FLAG, N-terminal, kept | 3NLS, N-terminal, state not stated | myc, N-terminal, state not stated
notes: C-terminal 130 amino acids of Cdt2
- interaction with PCNA (anti-FLAG IP) (PCNA): sufficient to mediate the interaction with PCNA
